Source: US20020151006A1 (ROCKEFELLER UNIVERSITY, published 2002)

Legend:
[1] = target: consolidated ligand NH2-PVpYENVG6>(…ONH2); assay: fluorescence-based titration assay in solution
[2] = target: T1, E. coli RNA polymerase sigma-70 subunit, full-length recombinant (sigma is printed as a garbled character: … (E. coli, UniProt P00579 1-613)); assay: Ni2+-NTA agarose co-immobilization, SDS-PAGE
T1 construct: range 1-613; also called full-length ?^70; recombinant ?^70
Protocol: (§1) The indicated proteins were loaded onto Ni²⁺-NTA-agarose beads (L) and the unbound protein was removed (F). The beads were extensively washed and the bound protein was eluted with buffer containing 100 mM imidazole (E).
(§2) A mixture of AsiAHis and recombinant σ⁷⁰ was loaded onto Ni²⁺-NTA agarose beads (lane 4) and the unbound material removed (lane 5). The beads were subsequently washed with 10 mM imidazole buffer and then eluted with 100 mM imidazole buffer.

[3] = target: T2, cleavage product containing the first 567 amino acids of sigma-70 (E. coli, UniProt P00579 1-567); assay: Ni2+-NTA agarose co-immobilization, SDS-PAGE
T2 construct: range 1-567; also called ?^70 fragment
Protocol: as §1, §2

[4] = target: T3, semisynthetic 600 amino acid-long sigma-70 derivative (ligation product of sigma-70 1-567 with the synthetic … (E. coli, UniProt P00579 1-567; P00579 568-600); assay: Ni2+-NTA agarose co-immobilization, SDS-PAGE
T3 construct: range 1-567;range 568-600; also called semisynthetic ?^70
Protocol: as §1, §2

Abl-[G^120C^121][SH2-^15N]SH(32), the ligation product of the Abl-SH3 and Abl-SH2 domains (from UniProt P00519 65-220)
Kd [1]: 300 nM

B1: bacteriophage T4 antisigma protein AsiA with a C-terminal hexahistidine tag (other)
chain: MNKNIDTVREIITVASILIKFSREDIVENRANFIAFLNEIGVTHEGRKLNQNSFRKIVSELTQEDKKTLIDEFNEGFEGVYRYLEMYTNKHHHHHH
notes: also called AsiAHis; AsiAHIS
binding result [2]: binds
binding result [3]: no binding
binding result [4]: binds
